T1: Nod1
T1 chain: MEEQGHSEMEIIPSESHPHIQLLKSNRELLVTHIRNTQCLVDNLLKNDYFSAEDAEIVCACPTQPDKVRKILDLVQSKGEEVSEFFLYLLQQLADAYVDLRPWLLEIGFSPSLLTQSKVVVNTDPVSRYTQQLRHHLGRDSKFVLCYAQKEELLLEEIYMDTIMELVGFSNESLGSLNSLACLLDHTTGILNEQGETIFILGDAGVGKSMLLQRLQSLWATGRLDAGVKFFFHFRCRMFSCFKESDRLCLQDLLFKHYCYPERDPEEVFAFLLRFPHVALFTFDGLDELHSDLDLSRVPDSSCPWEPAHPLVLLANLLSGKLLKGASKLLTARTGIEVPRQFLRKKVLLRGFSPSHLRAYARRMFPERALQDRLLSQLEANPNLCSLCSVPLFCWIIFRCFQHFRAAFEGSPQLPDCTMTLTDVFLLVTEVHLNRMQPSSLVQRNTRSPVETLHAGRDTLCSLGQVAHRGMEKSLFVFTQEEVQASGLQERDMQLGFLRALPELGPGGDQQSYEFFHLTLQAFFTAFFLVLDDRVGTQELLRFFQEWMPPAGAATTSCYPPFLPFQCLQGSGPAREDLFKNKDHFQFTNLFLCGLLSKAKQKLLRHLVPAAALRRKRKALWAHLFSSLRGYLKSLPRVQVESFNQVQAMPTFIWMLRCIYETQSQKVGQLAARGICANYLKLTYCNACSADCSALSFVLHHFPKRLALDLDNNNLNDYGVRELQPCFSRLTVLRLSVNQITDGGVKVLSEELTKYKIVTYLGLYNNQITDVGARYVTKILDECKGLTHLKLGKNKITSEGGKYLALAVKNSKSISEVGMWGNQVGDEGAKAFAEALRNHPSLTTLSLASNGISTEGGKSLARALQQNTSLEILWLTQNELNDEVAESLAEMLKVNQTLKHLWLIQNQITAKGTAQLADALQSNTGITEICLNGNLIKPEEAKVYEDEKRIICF

B1: Caspase-9 (protein)
chain: MDEADRRLLRRCRLRLVEELQVDQLWDALLSRELFRPHMIEDIQRAGSGSRRDQARQLIIDLETRGSQALPLFISCLEDTGQDMLASFLRTNRQAAKLSKPTLENLTPVVLRPEIRKPEVLRPETPRPVDIGSGGFGDVGALESLRGNADLAYILSMEPCGHCLIINNVNFCRESGLRTRTGSNIDCEKLRRRFSSLHFMVEVKGDLTAKKMVLALLELAQQDHGALDCCVVVILSHGCQASHLQFPGAVYGTDGCPVSVEKIVNIFNGTSCPSLGGKPKLFFIQACGGEQKDHGFEVASTSPEDESPGSNPEPDATPFQEGLRTFDQLDAISSLPTPSDIFVSYSTFPGFVSWRDPKSGSWYVETLDDIFEQWAHSEDLQSLLLRVANAVSVKGIYKQMPGCFNFLRKKLFFKTS
B2: Caspase-8 (protein)
chain: MDFSRNLYDIGEQLDSEDLASLKFLSLDYIPQRKQEPIKDALMLFQRLQEKRMLEESNLSFLKELLFRINRLDLLITYLNTRKEEMERELQTPGRAQISAYRVMLYQISEEVSRSELRSFKFLLQEEISKCKLDDDMNLLDIFIEMEKRVILGEGKLDILKRVCAQINKSLLKIINDYEEFSKERSSSLEGSPDEFSNGEELCGVMTISDSPREQDSESQTLDKVYQMKSKPRGYCLIINNHNFAKAREKVPKLHSIRDRNGTHLDAGALTTTFEELHFEIKPHDDCTVEQIYEILKIYQLMDHSNMDCFICCILSHGDKGIIYGTDGQEAPIYELTSQFTGLKCPSLAGKPKVFFIQACQGDNYQKGIPVETDSEEQPYLEMDLSSPQTRYIPDEADFLLGMATVNNCVSYRNPAEGTWYIQSLCQSLRERCPRGDDILTILTEVNYEVSNKDDKKNMGKQMPQPTFTLRKKLVFPSD

Target: T1, Nod1

| Protein | proteolytic processing of procaspase-9 (SDS-PAGE, anti-Flag immunoblot of 293T lysates) | proteolytic processing of procaspase-8 (SDS-PAGE, anti-HA immunoblot of 293T lysates) |
| --- | --- | --- |
| B1 | Expression of Nod1 includes the proteolytic activation of procaspase-9, but not that of procaspase-8 | – |
| B2 | – | Expression of Nod1 includes the proteolytic activation of procaspase-9, but not that of procaspase-8 |

— US20030049732
